The supplement of paper PMC10567573

B1: ZNF511 (parent)
chain: HLYPADFRFDKPKKSRSPASAEAP
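Note: lentivirally expressed fusions sorted by FACS into six bins by GFP to DsRed ratio, PSI derived from sequencing read proportions per bin multiplied by bin number.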

Variants of: B1
Test: protein stability index of a GFP-peptide fusion (GPS, HEK-293T) (PSI 1-6); higher = more stable
Conditions: c terminus: a fixed tail appended
P12G showed a protein stability index of 3.02.
Work on P12D yielded a protein stability index of 3.2.
P12Q gave a protein stability index of 3.18.
Variant A19G has a protein stability index of 3.02.
Work on A19N yielded a protein stability index of 2.56.
Variant A19L has a protein stability index of 2.88.
Variant A19Y has a protein stability index of 2.69.
Variant D6G has a protein stability index of 3.23.
Work on D6K yielded a protein stability index of 2.22.
Work on D6W yielded a protein stability index of 2.87.
For D6L, the protein stability index was 2.61.
With D6P the protein stability index was 3.19.
Work on P24N yielded a protein stability index of 3.09.
Variant P24I has a protein stability index of 2.61.
With Y3A the protein stability index was 4.14.
Work on Y3G yielded a protein stability index of 4.38.
Variant Y3L has a protein stability index of 4.36.
Work on Y3D yielded a protein stability index of 4.58.
With Y3R the protein stability index was 4.26.
In the case of Y3W, the protein stability index is reported as 3.71.
Variant S17E has a protein stability index of 3.18.
With S17Q the protein stability index was 3.
S17N gave a protein stability index of 3.16.
For S17H, the protein stability index was 2.86.
Variant L2C has a protein stability index of 3.53.
For L2D, the protein stability index was 4.91.
For L2P, the protein stability index was 4.52.
L2M showed a protein stability index of 3.35.
L2K showed a protein stability index of 4.6.
F9L gave a protein stability index of 3.18.
F9R gave a protein stability index of 3.71.
F9K gave a protein stability index of 4.12.
In the case of F9W, the protein stability index is reported as 2.82.
With F9G the protein stability index was 2.63.
Work on K14T yielded a protein stability index of 2.8.
Variant K14H has a protein stability index of 2.37.
With K14N the protein stability index was 3.04.
K14V gave a protein stability index of 2.33.
With K14R the protein stability index was 2.01.
With R8N the protein stability index was 3.1.
Work on R8I yielded a protein stability index of 2.03.
With R8M the protein stability index was 2.64.
Variant D10C has a protein stability index of 2.15.
Variant D10Q has a protein stability index of 2.26.
D10F showed a protein stability index of 2.83.
Variant D10N has a protein stability index of 2.39.
In the case of F7N, the protein stability index is reported as 4.15.
In the case of F7D, the protein stability index is reported as 4.63.
F7E gave a protein stability index of 5.23.
Variant F7T has a protein stability index of 4.25.
F7Q gave a protein stability index of 4.62.
F7V gave a protein stability index of 4.62.
In the case of S15M, the protein stability index is reported as 2.88.
With A5F the protein stability index was 2.63.
Work on A5H yielded a protein stability index of 3.06.
Variant A5E has a protein stability index of 2.3.
For A5T, the protein stability index was 3.11.
In the case of S20Q, the protein stability index is reported as 2.42.
S20R gave a protein stability index of 2.97.
In the case of S20H, the protein stability index is reported as 2.69.
Variant S20E has a protein stability index of 2.78.
For S20V, the protein stability index was 2.82.
In the case of A23M, the protein stability index is reported as 2.53.
Variant A23D has a protein stability index of 3.24.
Work on A23E yielded a protein stability index of 2.88.
Variant R16M has a protein stability index of 3.28.
With R16E the protein stability index was 3.34.
R16H gave a protein stability index of 3.13.
In the case of R16C, the protein stability index is reported as 2.54.
Work on R16Q yielded a protein stability index of 3.28.
Variant R16A has a protein stability index of 3.51.
Work on R16T yielded a protein stability index of 3.44.
With H1T the protein stability index was 4.19.
In the case of H1V, the protein stability index is reported as 3.67.
With H1Q the protein stability index was 3.65.
H1R showed a protein stability index of 3.57.
For P4A, the protein stability index was 3.96.
With P4L the protein stability index was 3.56.
In the case of P4S, the protein stability index is reported as 3.9.
In the case of P4M, the protein stability index is reported as 3.43.
P4E gave a protein stability index of 4.33.
Work on P4D yielded a protein stability index of 4.22.
P4R showed a protein stability index of 3.73.
P4H showed a protein stability index of 3.95.
